Measurements reported in publication PMC8828746.

The substances below were run against Fc-tagged human angiotensin-converting enzyme 2 (hACE2) (human) (UniProt Q9BYF1) (assay: BLI).

| Substance | Kd [nM] |
| --- | --- |
| 6× His-tagged S1 protein of SARS-CoV-2 Delta (B.1.617.2) variant (domain or fragment) | 5.03 |
| 6× His-tagged S1 protein of SARS-CoV-2 Kappa (B.1.617.1) variant (domain or fragment) | 4.85 |
| 6× His-tagged S1 protein of SARS-CoV-2 Omicron (B.1.1.529) variant (domain or fragment) | 7.4 |
